Measured values as given in paper PMC5087658, “Essential role of the Dishevelled DEP domain in a Wnt-dependent human-cell-based complementation assay” (Journal of Cell Science, 2016).
Values joined by “and” are separate entries in the source; they are usually repeats but may differ in a detail not shown here. Equal entries are not always repeated.

T1: DVL2 PDZ domain (PDZ_(265-361)), wt, 15N-labelled (human, UniProt O14641 265-361, 15N-labelled)
T1 construct: Dishevelled 2 (DVL2), human, PDZ domain, residues 265-361; Tag was followed by the linker ENLYFQS (TEV site); also called wt 15N-PDZ; minimal PDZ domain of DVL2; source: E. coli BL21-CodonPlus(DE3)-RIL, purified (NiNTA), Lip tag cleaved with TEV protease; not shown: His6, N-terminal, cleaved; Lip, N-terminal, cleaved
T1 sequence (looked up): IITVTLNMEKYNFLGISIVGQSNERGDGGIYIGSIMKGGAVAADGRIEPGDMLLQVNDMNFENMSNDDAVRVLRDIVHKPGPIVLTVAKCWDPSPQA

B1: Lip–DEP_(417-511), DVL2 DEP domain, wt (domain or fragment, human, UniProt O14641 417-511, looked up)
chain: LSVHTDMASVTKAMAAPESGLEVRDRMWLKITIPNAFLGSDVVDWLYHHVEGFPERREARKYASGLLKAGLIRHTVNKITFSEQCYYVFGDLSGG
notes: Dishevelled 2 (DVL2), human, DEP domain, residues 417-511; Between the 6xHis-Lip tag and the domain stands the linker ENLYFQS (TEV site); also called wt DEP domain; DVL2 DEP_(417-511); source: E. coli BL21-CodonPlus(DE3)-RIL, purified (NiNTA); not shown: Lip, N-terminal, kept
B2: Lip–DEP_(417-511) I447M (domain or fragment, human, UniProt O14641 417-511, looked up)
chain: LSVHTDMASVTKAMAAPESGLEVRDRMWLKMTIPNAFLGSDVVDWLYHHVEGFPERREARKYASGLLKAGLIRHTVNKITFSEQCYYVFGDLSGG
notes: Dishevelled 2 (DVL2), human, DEP domain, residues 417-511, with I447M; also called tetramerisation mutant; source: E. coli BL21-CodonPlus(DE3)-RIL, purified (NiNTA)
B3: Lip–DEP_(417-511) I447T (domain or fragment, human, UniProt O14641 417-511, looked up)
chain: LSVHTDMASVTKAMAAPESGLEVRDRMWLKTTIPNAFLGSDVVDWLYHHVEGFPERREARKYASGLLKAGLIRHTVNKITFSEQCYYVFGDLSGG
notes: Dishevelled 2 (DVL2), human, DEP domain, residues 417-511, with I447T; also called tetramerisation mutant; source: E. coli BL21-CodonPlus(DE3)-RIL, purified (NiNTA)
B4: Lip–DEP_(417-511) I447F (domain or fragment, human, UniProt O14641 417-511, looked up)
chain: LSVHTDMASVTKAMAAPESGLEVRDRMWLKFTIPNAFLGSDVVDWLYHHVEGFPERREARKYASGLLKAGLIRHTVNKITFSEQCYYVFGDLSGG
notes: Dishevelled 2 (DVL2), human, DEP domain, residues 417-511, with I447F; also called tetramerisation mutant; source: E. coli BL21-CodonPlus(DE3)-RIL, purified (NiNTA)
B5: Lip–DEP_(417-511) K446M (domain or fragment, human, UniProt O14641 417-511, looked up)
chain: LSVHTDMASVTKAMAAPESGLEVRDRMWLMITIPNAFLGSDVVDWLYHHVEGFPERREARKYASGLLKAGLIRHTVNKITFSEQCYYVFGDLSGG
notes: Dishevelled 2 (DVL2), human, DEP domain, residues 417-511, with K446M; source: E. coli BL21-CodonPlus(DE3)-RIL, purified (NiNTA)
B6: C-terminal peptide from Dvl1 (DVL-C) (peptide)
peptide: SEFFVDVM
notes: C-terminal peptide of Dishevelled 1 (Dvl1); Lee et al., 2015; also called DVL-C peptide; source: kindly provided by Jie Zheng (University of California, Los Angeles)

Tests used:
SNAP–FZD5 = SNAP–FZD5 (UniProt Q13467); assay: FZD5-dependent recruitment of DEP-GFP to the plasma membrane, cells scored by fluorescence microscopy; settings: HEK293T cells, 100 cells scored in each case, read off a plot; for other: % of cells with no FZD5 recruitment: parent: est. 12; for other: % of cells with weak FZD5 recruitment: parent: est. 36; for other: % of cells with strong FZD5 recruitment: parent: est. 52
[1] = biological target: the molecule itself; assay: SEC-MALS; phosphate-buffered saline, GE Superdex S-200 10/300 analytical column; unfractionated purified Lip–DEP
[2] = biological target: the molecule itself; assay: SEC-MALS; not shown; tetramerisation of the K446M DEP domain
[3] = biological target: T1, DVL2 PDZ domain (PDZ_(265-361)), wt, …; assay: NMR titration; 1H-15N correlation spectra (fast-HSQC or BEST-TROSY) of 100 µM 15N-PDZ alone or with 3x molar excess (300 µM) of DVL-C or Lip–FZD peptide; 298 K, aqueous phosphate buffer at physiological ionic strength, pH 6.7; settings: both partners purified

Sequence of SNAP–FZD5 (Q13467 27-585): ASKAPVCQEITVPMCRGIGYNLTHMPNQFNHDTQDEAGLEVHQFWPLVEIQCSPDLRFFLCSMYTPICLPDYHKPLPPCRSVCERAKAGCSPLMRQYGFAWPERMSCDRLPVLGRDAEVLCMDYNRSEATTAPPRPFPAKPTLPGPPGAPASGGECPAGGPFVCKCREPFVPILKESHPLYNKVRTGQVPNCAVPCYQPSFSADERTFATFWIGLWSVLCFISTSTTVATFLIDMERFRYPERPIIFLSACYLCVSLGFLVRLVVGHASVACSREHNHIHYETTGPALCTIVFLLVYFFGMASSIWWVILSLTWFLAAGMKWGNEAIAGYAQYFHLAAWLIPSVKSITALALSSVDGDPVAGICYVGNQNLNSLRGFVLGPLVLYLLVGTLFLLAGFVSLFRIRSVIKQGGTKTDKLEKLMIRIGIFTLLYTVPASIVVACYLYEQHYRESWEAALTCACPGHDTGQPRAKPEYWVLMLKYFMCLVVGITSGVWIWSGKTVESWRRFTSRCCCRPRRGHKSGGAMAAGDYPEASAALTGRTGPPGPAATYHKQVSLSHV

Molecule | other: % of cells with no FZD5 recruitment (SNAP–FZD5) | other: % of cells with weak FZD5 recruitment (SNAP–FZD5) | other: % of cells with strong FZD5 recruitment (SNAP–FZD5) | stoichiometry N [1] | further results
DEP–GFP, wt (minimal DEP domain of DVL2) (from UniProt O14641) I447F | 8 % of cells | 34 % of cells | 58 % of cells | – | –
DEP–GFP, wt (minimal DEP domain of DVL2) (from UniProt O14641) L445E | 80 % of cells | 20 % of cells | – | – | –
DEP–GFP, wt (minimal DEP domain of DVL2) (from UniProt O14641) I447T | 7 % of cells | 32 % of cells | 61 % of cells | – | –
DEP–GFP, wt (minimal DEP domain of DVL2) (from UniProt O14641) I447M | 7 % of cells | 41 % of cells | 52 % of cells | – | –
DEP–GFP, wt (minimal DEP domain of DVL2) (from UniProt O14641) K446M | 75 % of cells | 22 % of cells | 3 % of cells | – | –
B1 | – | – | – | 2 and 4 | –
B2 | – | – | – | 2 | –
B3 | – | – | – | 2 | –
B4 | – | – | – | 2 | –
B5 | – | – | – | – | stoichiometry N [2]: 4
B6 | – | – | – | – | binding result [3]: binds
